This passage reports EC50 results from patent US20200231671A1 (E R SQUIBB AND SONS L L C, published 2020).

The target in the test is T1, human LAG-3 (cell surface) (human, UniProt P18627 23-525).
T1 construct: whole, on cells; also called CHO-human LAG-3
T1 sequence (looked up): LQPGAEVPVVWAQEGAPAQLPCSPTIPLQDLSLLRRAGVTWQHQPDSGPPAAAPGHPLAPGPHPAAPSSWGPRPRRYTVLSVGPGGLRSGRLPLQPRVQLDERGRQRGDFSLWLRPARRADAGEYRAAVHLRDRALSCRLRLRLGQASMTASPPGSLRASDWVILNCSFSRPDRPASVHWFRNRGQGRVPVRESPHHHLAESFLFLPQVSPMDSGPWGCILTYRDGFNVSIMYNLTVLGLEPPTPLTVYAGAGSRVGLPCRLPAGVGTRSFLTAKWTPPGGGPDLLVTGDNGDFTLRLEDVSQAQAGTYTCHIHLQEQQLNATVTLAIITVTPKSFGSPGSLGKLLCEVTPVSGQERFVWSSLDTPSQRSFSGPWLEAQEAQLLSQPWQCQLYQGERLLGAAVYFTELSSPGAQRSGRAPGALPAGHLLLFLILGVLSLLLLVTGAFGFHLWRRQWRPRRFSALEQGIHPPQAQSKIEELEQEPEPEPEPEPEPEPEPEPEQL
In words: flow cytometry, CHO cells expressing human LAG-3. Here is the method: To test the ability of the antibodies to bind to cell surface LAG-3 protein, the antibodies were incubated with a CHO cell line that had been transfected to express human LAG-3 on the cell surface. The 25F7, 26H10, 25E3, 8B7, 11F2 and 17E5 monoclonal antibodies were serially diluted with cold lx PFAE buffer (1×PBS+2% FBS, 0.02% sodium azide, 2 mM Na EDTA). For the binding reaction, 50 μl of diluted antibody solution was added to a 50 μl cell suspension containing 2×10⁵ cells and the mixture was incubated on ice for 30 minutes. The cells were then washed two times with 1×PFAE buffer. A 1:100 dilution of FITC-labeled goat anti-human kappa light chain antibody (Bethyl Laboratories, Inc., Cat. # A80-115F) was added and the mixture was incubated for 30 minutes at 4° C., followed by washing twice with cold 1×PFAE buffer. After the final wash, 150 μl of cold 1×PFAE containing 10 μg/mL propidium iodide (Roche Applied Science, Cat #1 348 639) was added to each solution and analysis of antibody binding was carried out by flow cytometry using a FACScalibur flow cytometer (BD Bioscience).

For orientation: EC50 means the concentration giving half of the maximal effect. Higher therefore signals a less potent agent.

B1: 11F2 human monoclonal antibody (antibody, IgG2, V domains shown)
VH: QVQLVQSGAEVKKPGASVKVSCKVSGYTLTEVSMHWVRQAPGKGLEWMGGFDPEDGETIYAQKFQGRVTMTEDTSTDTAYMELSSLRSEDTAVYYCATAFVVVVAASDYWGQGTLVTVSS
VL: EIVLTQSPATLSLSPGERATLSCRASQSVSSYLAWYQQKPGQAPRLLIYDASNRATGIPARFSGSGSGTDFTLTISSLEPEDFAVYYCQQRSNWPWTFGQGTKVEIK
B1: the half-maximal effective concentration (EC50) was determined as 15.1 nM.
